According to patent US20120165265A1, “Calcium Signaling Modulators Involving STIM and ORAI Proteins” (priority 2009, published 2012):
One block for each substance: values may come before it.

Columns and labels:
endogenous CRAC channels = assay: NFAT-luciferase assay in HEK 293T (NFAT-Luc) cells; format: cell-based; details: HEK 293T NFAT-luc cells transfected with STIM1 construct; PMA (1 μM) alone
Description: NFAT-luciferase Assays. HEK 293T cells were co-transfected with the indicated constructs and an NFAT reporter gene (firefly luciferase gene C-terminal to 4×-NFAT site from the IL-2 gene). Cotransfection with the Renilla luciferase (pRLTK) gene driven by the TK promoter was used to control for cell number and transfection efficiency. After 12-18 h, cells were treated with a control DMSO solution (mock), PMA (1 μM), or PMA plus TG (1 μM) for 8 h. Assays were performed using the Dual Luciferase Reporter assay system (Promega). For each condition, luciferase activity was measured with 4 samples taken from duplicate wells using a 96-well automated luminometer (Turner Biosystems). Results are represented as the ratio of firefly to Renilla luciferase activity.
Identifying a Minimal Cytosolic Region of STIM1 that Opens the CRAC Channel. To identify the CRAC-activating domain of STIM1, we first tested a series of soluble cytosolic STIM1 fragments for their ability to activate an NFAT-dependent luciferase reporter gene (NFAT-luc). A series of constructs were generated by progressive truncation of the full-length cytosolic region of STIM1 (FIG. 2A; STIM1234-685; CT-STIM1) and were transiently expressed in a HEK 293T cell line containing NFAT-luc. […]

Orai1 [1] = target: T1, Orai1 (Homo sapiens, UniProt Q96D31); assay: Co-immunoprecipitation with Orai1 in HEK 293T cells; format: binding; set-up: expressed in transfected cells; host or cells: HEK 293; details: 150 mM salt, 1% Triton X-100
Description: Immunoprecipitation and Immunoblot Analysis. Transfected HEK 293T cells (12-24 h) were washed with PBS and lysed in 50 mM Tris-HCl pH 7.5, 150 mM NaCl, 1% Triton X-100, and protease inhibitors. Lysates were spun at 12,000 rpm for 10 min, and the supernatant was incubated with anti-Flag M2 agarose beads (Sigma), or anti-myc or -HA antibody followed by IgG agarose beads (Pierce). Lysates and immunoprecipitates were subjected to SDS-PAGE, probed with HRP-conjugated secondary antibody and detected by enhanced chemiluminescence (Pierce).
CAD Associates with Orai1 in vivo and in vitro. Because cytosolic CAD is a potent activator of Orai1 channels and is not associated with the ER, we hypothesized that CAD binds to Orai1. To test this idea, we first expressed YFP-CAD with or without myc-Orai1 in HEK 293 cells and examined its intracellular localization. […] To provide additional evidence that CAD and Orai1 are part of the same protein complex we expressed Flag-tagged CAD and GFP-tagged Orai1 in HEK 293T cells and immunoprecipitated CAD with anti-Flag antibodies. GFP-myc-Orai1 was detected in the immunoprecipitates from cells co-expressing CAD and Orai1 but not from cells expressing CAD or Orai1 alone (FIG. 3B).
Thus, CAD and Orai1 form a protein complex in mammalian cells.

CRAC channels = target: T2, CRAC channels (Homo sapiens, UniProt Q96D31); assay: [Ca2+]i imaging in HEK 293 cells expressing STIM1 fragment and Orai1; format: cell-based
T2 construct: expressed in transfected cells; host or cells: HEK 293
Description: Ca^2+ Imaging. For FIG. 2, cells were loaded at 37° C. in DMEM with 1 μM fura-2/AM for 30 min. Ratiometric Ca2+ imaging was performed at 340 and 380 nm in 2 mM Ca2+ Ringer's solution with a Nikon Eclipse 2000-U inverted microscope equipped with a fluorescent arc lamp, excitation filter wheel, and a Hamamatsu Orca CCD camera. Images were collected using Openlab (Improvision) and analyzed using Igor Pro.
To determine if CAD activates store operated Ca^2+ influx in cells, we measured [Ca^2+]i in HEK 293 cells expressing CAD and Orai1.

EE-Orai1-His8 = target: T3, EE-Orai1-His8 (Homo sapiens, UniProt Q96D31); assay: GST pull-down assay with purified proteins; format: binding; details: in vitro
T3 construct: made in house; host or cells: Hi5 insect cells (baculovirus, pVL1393)
Description: GST Pull-down Assays. For GST pull-down assays, either GST-CAD (0.16 μM) or GST (0.15 μM) was incubated with EE-Orai1-His8 (0.1 μM) for 1 h in buffer containing (in mM): 20 Tris-HCl (pH 8.0), 150 NaCl, 20 imidazole, and 1 DTT with protease inhibitors. After addition of glutathione sepharose the beads were centrifuged, washed with the above buffer, and the precipitated proteins were eluted with boiling SDS and analyzed by SDS-PAGE and Western blotting.
CAD Binds Directly to Orai1. To test for direct binding between the CAD and Orai1 we generated a GST-tagged CAD peptide in E. coli and an Orai1 protein containing C-terminal octa-histidine and N-terminal EEYMPME (“EE”) tags in insect Hi5 cells. We incubated purified GST-CAD or GST alone with purified EE-Orai1-His8 and used glutathione beads to precipitate the complexes.

Orai1 [2] = target: T1, Orai1; assay: Puncta formation of STIM1 variants by confocal microscopy in HEK 293 cells; format: cell-based; set-up: expressed in transfected cells; host or cells: HEK 293; details: coexpressed with eGFP-Orai1, TG
Description: Confocal Microscopy. 6 h after transfection, HEK 293 cells were plated onto sterilized coverslips coated with poly-D-lysine and maintained in complete DMEM for an additional 12-18 h before imaging in Ringer's solution containing (in mM): 155 NaCl, 4.5 KCl, 2 CaCl2, 1 MgCl2, 10 D-glucose, and 5 Na-Hepes, pH 7.4. To deplete stores, cells were treated with 1 μM TG in Ca2+-free Ringer's (prepared by substituting 2 mM MgCl2 and 1 mM EGTA for CaCl2) for 10 min. eGFP and mCherry were excited simultaneously at 488 and 594 nm, respectively, on a Leica SP2 AOBS inverted confocal microscope equipped with a PL APO 100×/NA 1.4 oil immersion objective. Fluorescence emissions were collected at 615-840 nm (mCherry) and 510-570 nm (eGFP). All experiments were performed at 22-25° C.
Quantitation of STIM1 and Orai1 Recruitment into Puncta. Colocalization of eGFP-Orai1 and mCh-STIM1 variants was analyzed from background-corrected confocal image pairs acquired before and after store depletion. Puncta have two defining characteristics: (1) because they are sites of accumulation, STIM1 and Orai1 fluorescence intensities in puncta are greater than the respective mean intensities measured across the entire cell, and (2) because STIM1 and Orai1 co-localize in puncta, their fluorescence covariance is high. For each STIM1/Orai1 image pair, we computed the covariance of each pixel as (Si−s) (Oi−o), where Si and Oi are the STIM1 and Orai1 fluorescence of pixel i, and s and o are the mean STIM1 and Orai1 fluorescence of the entire cell. A threshold criterion for puncta was set using the pre-depletion image pair. The mean and s.d. of the covariance values were calculated from pixels for which both Si>s and Oi>o, and a covariance threshold was set equal to the mean+2×s.d. of this pre-depletion condition. Binary masks were applied to the pre- and post-depletion image pairs to isolate pixels for which Si>s and Oi>o and whose covariance exceeds the pre-depletion threshold. […] Integrated STIM1 or Orai1 puncta intensity was calculated from the masked images and expressed as a fraction of the total fluorescence intensity in the unmasked image. […]
The Role of CAD in Orai1 Binding and Activation by STIM1. […] To address this, we measured the ability of mCherry-tagged STIM1 variants containing CAD mutations to co-cluster with eGFP-Orai1 and activate Ca^2+ entry in response to TG (FIG. 7). STIM1-Orai1 colocalization was quantified as the fraction of total STIM1 and Orai1 fluorescence that was recruited to regions of high fluorescence covariance (FIG. 13), while Ca^2+ influx was measured with single cell Ca^2+ imaging. For each set of experiments we measured mCherry and GFP fluorescence to confirm that differences in the activity of the various STIM1 constructs were not due to differences in expression level (FIG. 14).

Orai1 [3] = target: T1, Orai1; assay: Store-operated Ca2+ entry by STIM1 variants, single cell Ca2+ imaging; format: cell-based; set-up: expressed in transfected cells; host or cells: HEK 293; details: coexpressed with eGFP-Orai1, TG
Description: For FIG. 7, cells were loaded as above with 2 μM fura-2/AM for 25 min. Ratiometric Ca2+ imaging was performed with 350 and 380 nm excitation in 2 mM Ca2+ Ringer's solution on an Axiovert 35 inverted microscope using a VideoProbe imaging system as described (Bautista et al., 2002). mCherry-positive cells were identified using a 540±12 nm excitation and a 580LP emission filter (Chroma).
The Role of CAD in Orai1 Binding and Activation by STIM1. A key question is whether CAD is responsible for the clustering and activation of CRAC channels by full-length STIM1 following store depletion. To address this, we measured the ability of mCherry-tagged STIM1 variants containing CAD mutations to co-cluster with eGFP-Orai1 and activate Ca^2+ entry in response to TG (FIG. 7). STIM1-Orai1 colocalization was quantified as the fraction of total STIM1 and Orai1 fluorescence that was recruited to regions of high fluorescence covariance (FIG. 13), while Ca^2+ influx was measured with single cell Ca^2+ imaging. For each set of experiments we measured mCherry and GFP fluorescence to confirm that differences in the activity of the various STIM1 constructs were not due to differences in expression level (FIG. 14).

T1 sequence (Q96D31 whole entry): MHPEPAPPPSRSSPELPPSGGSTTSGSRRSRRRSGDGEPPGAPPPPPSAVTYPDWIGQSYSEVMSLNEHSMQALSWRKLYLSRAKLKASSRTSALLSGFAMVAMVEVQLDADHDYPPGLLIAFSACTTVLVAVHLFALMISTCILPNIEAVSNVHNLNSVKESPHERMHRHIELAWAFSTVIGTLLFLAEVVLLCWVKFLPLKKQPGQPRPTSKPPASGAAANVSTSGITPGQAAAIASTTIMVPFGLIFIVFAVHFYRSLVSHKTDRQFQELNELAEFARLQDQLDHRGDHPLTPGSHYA
T2 sequence (Q96D31 whole entry, the tested form may be a part): as the sequence (Q96D31 whole entry) above
T3 sequence (Q96D31 whole entry): as above

co-immunoprecipitation with Orai1 (Orai1 [1]): unable to detect any interaction | resting [Ca2+]i (CRAC channels; HEK 293T cells coexpressing construct and Orai1): did so | [Ca2+]i / CRAC channel activation (CRAC channels; HEK 293 cells coexpressing construct and Orai1, no store depletion): did not elevate resting [Ca^2+]i
Substance: CT-STIM1: full-length cytosolic region of STIM1 (aa 234-685) [reference compound]
activation of NFAT-dependent luciferase reporter gene (NFAT-luc) (endogenous CRAC channels): did not activate

co-precipitation of purified Orai1 with glutathione beads (EE-Orai1-His8): co-precipitated Orai1
Substance: GST-CAD: GST-tagged CAD peptide generated in E. coli

puncta formation with Orai1 after store depletion (Orai1 [2]): formed pronounced puncta with Orai1 | Ca2+ entry (SOCE) after store depletion (Orai1 [3]): only marginally activated SOCE
Substance: STIM1 C437G: STIM1 C437G mutant
